From US20210063414A1, “METHODS FOR PREVENTING AND/OR TREATING BONE LOSS CONDITIONS BY MODULATING IRISIN” (Dana-Farber Cancer Institute, Inc., priority 2018, published 2021) come the findings set out here.

The test system of test [1] is primary inguinal fat cells. The experiment in a line: Ucp1 mRNA in primary inguinal fat cells. It is filed as cell-based, mice. The following applies: irisin during 6 days differentiation. The method, then:
FIG. 18A-FIG. 18B show mRNA and protein levels of indicated genes. 1 mg/kg irisin was injected to 8-week old mice every other day for 6 days. mRNA levels of indicated genes in inguinal fat were analyzed by qRT-PCR. Cyclophilin was used for housekeeping gene (FIG. 18A). Inguinal fats were also lysed to detect the indicated protein level using immunoblot analysis (FIG. 18B). FIGS. 18C and 18D show mRNA and protein levels of indicated genes. Mice were treated and analyzed as (A-B) with addition of coinjection of […] control RGD peptide or cyclo RGDyK (cRGDyK). mRNA levels of indicated genes in inguinal fat were analyzed by qRT-PCR. Cyclophilin was used for house-keeping gene (FIG. 18C). Inguinal fats were also lysed to detect the indicated protein level using immunoblot analysis (FIG. 18D). […] Ucp1 mRNA level was analyzed by qRT-PCR. […]
Inguinal fat tissue from 6 weeks old mice was dissected and washed with PBS, minced and digested for 1 hour at 37° C. in PBS containing 10 mM CaCl2, 2.4 U/ml dispase II (Roche) and 10 mg/ml collagenase D (Roche). […] After that, cells were maintained in 1 μM rosiglitazone in the presence of 0, 0.5, 5 or 50 ng/ml recombinant […] his-tag irisin protein for 4 days with medium change every other day. mRNA levels were analyzed as described in gene expression analysis. […]

A further test has as its target integrin αV/β5 (Homo sapiens, UniProt P06756+P18084). The experiment in a line: FAK phosphorylation in HEK293T cells with forced expression of integrin αV/β5. It is filed as cell-based. The arrangement: expressed in transfected cells; host or cells: HEK293T. To be noted: HEK293T, forced expression of integrin αV/β5, irisin 5 minutes. How it is done:
100 nM irisin was incubated with 5 nM indicated his-tag integrins followed by immunoprecipitation using Ni-NTA agaroses. Precipitated integrins and co-precipitated irisin were analyzed by immunoblot analysis. […] HEK293T cells were seeded and incubated until 50% cell density. The cells were transfected with 0.1 μg plasmids of indicated integrins. After 48 hours, the cells were incubated with Freestyle293 medium for 3 hours and were treated with indicated concentration of irisin for 5 minutes. Cells were lysed to detect the indicated protein level using immunoblot analysis. […] Sclerostin mRNA level was analyzed by qRT-PCR. […]
100 nM irisin was incubated with 5 nM indicated his-tag integrins followed by immunoprecipitation using Ni-NTA agaroses. Precipitated integrins and co-precipitated irisin were analyzed by immunoblot analysis. […] Cells were treated and analyzed as FIG. 14B except using plasmids encoding integrin α5/β1 or integrin α11/β1 (FIG. 15C) integrin αV/β1(FIG. 15D).
MLO-Y4 cells were treated and analyzed as described in FIG. 5A with addition of pretreatment of control RGD peptide, cyclo RGDyK (cRGDyK), or SB273005. […] HEK293 cells were treated and analyzed as described in FIG. 14B except the treatment of different dose of cyclo RGDyK. […] 8 weeks old male mice were treated and analyzed as described in FIG. 5D except the additional group with co-injection of 1 mg/kg SB273005. […]

integrin αV/β5, sequence (P06756 31-889 limits assumed): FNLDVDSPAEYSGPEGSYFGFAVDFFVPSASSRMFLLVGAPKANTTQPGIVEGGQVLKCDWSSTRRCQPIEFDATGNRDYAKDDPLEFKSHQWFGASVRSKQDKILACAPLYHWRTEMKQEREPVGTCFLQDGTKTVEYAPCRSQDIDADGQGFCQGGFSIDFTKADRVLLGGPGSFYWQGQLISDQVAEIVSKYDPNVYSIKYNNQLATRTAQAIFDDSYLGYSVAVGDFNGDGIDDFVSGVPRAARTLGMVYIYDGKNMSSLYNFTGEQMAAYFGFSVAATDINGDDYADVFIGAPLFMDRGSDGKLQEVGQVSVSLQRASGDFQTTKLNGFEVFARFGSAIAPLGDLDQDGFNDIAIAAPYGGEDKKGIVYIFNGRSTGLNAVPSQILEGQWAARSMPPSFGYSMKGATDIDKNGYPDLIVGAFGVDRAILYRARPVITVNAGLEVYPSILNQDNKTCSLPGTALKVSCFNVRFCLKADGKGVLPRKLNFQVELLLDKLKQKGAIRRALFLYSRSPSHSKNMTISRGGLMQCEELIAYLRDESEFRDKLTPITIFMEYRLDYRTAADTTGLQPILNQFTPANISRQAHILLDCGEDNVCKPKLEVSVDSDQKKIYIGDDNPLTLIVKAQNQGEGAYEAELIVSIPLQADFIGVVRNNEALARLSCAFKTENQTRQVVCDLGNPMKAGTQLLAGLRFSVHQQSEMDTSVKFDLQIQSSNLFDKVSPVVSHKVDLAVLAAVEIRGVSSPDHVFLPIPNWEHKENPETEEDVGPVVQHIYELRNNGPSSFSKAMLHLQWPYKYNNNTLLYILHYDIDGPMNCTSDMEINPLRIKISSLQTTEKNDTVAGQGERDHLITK
integrin αV/β5, sequence (P06756 891-1048 partner limits assumed): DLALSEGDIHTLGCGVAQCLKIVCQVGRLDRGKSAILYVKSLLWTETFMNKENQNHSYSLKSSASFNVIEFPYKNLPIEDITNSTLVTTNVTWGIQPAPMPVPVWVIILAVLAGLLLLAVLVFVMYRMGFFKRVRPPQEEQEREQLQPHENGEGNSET
integrin αV/β5, sequence (P18084 24-799): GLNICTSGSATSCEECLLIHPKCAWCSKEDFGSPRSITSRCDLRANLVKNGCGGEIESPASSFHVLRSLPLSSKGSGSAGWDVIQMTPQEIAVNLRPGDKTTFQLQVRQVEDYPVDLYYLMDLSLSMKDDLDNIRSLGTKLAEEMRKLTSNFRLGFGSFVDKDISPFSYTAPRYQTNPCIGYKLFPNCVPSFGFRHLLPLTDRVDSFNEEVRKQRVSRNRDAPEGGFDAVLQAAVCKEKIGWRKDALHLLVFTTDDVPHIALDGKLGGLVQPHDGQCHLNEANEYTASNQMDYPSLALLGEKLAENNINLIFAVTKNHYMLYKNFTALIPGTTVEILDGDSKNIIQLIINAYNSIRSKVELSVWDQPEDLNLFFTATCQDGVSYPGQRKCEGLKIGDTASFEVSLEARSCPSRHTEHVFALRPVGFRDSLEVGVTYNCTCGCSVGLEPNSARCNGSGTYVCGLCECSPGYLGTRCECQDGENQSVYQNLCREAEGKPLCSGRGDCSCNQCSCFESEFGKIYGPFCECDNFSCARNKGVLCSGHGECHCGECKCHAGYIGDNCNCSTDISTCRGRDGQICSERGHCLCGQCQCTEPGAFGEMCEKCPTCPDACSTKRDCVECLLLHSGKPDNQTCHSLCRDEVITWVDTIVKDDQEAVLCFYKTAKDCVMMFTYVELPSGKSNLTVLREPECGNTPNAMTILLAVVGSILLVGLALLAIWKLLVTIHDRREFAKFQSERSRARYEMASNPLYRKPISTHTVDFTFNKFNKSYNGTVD

B1: irisin: secreted cleaved form of FNDC5; recombinant human/mouse irisin with C-terminal his tag produced in HEK293 cells (protein)
chain: DSPSAPVNVTVRHLKANSAVVSWDVLEDEVVIGFAISQQKKDVRMLRFIQEVNTTTRSCALWDLEEDTEYIVHVQAISIQGQSPASEPVLFKTPREAEKMASKNKDEVTMKE
modifications: left off: small tags and cut ends
notes: secreted cleaved form of FNDC5; recombinant human/mouse irisin with C-terminal his tag produced in HEK293 cells
Turning to B1, the “gene expression of Ucp1” value in test [1] was “increased the gene expression of Ucp1”. The “phosphorylation of FAK upon irisin treatment” value with integrin αV/β5 is given as “enhanced level of phosphorylation of FAK”.
